The target in experiment [1] is T1, human serum albumin (human, UniProt P02768 25-609).
T1 construct: Bought protein; also called HSA
In words: SPR, Biacore T100; sample captured by anti-human CH1 antibody, HSA as analyte.
Experimental: (§1) Covalent immobilisation of the capture antibody was achieved by standard amine coupling chemistry.
(§2) After each cycle, the capture surface was regenerated with 2×1 min injections of 40 mM HCl followed by 30 s of 5 mM NaOH. The flow rates used were 10 μl/min for capture, 30 μl/min for association and dissociation phases, and 10 μl/min for regeneration.
(§3) A blank flow-cell was used for reference subtraction and buffer-blank injections were included to subtract instrument noise and drift.

Experiment [2] addresses T2, IL-6 (UniProt P05231 30-212, limits assumed). Nature of the experiment: SPR, Biacore T100; sample captured by anti-human CH1 antibody, IL-6 as analyte, 1:1 fit. (In general: In SPR one partner is held on a chip, and binding of the other changes the refractive index at the surface.)
Experimental: as §1, §3
(§4) Kinetic parameters were determined by simultaneous global-fitting of the resulting sensorgrams to a standard 1:1 binding model using Biacore T100 Evaluation Software v2.0.1.
The target in experiment [3] is T2, IL-6. In words: SPR, Biacore T100; sample captured by anti-human CH1 antibody, IL-6 as analyte.
Experimental: as §1, §2, §3
The target of experiment [4] is T1, human serum albumin. In words: SPR, Biacore T100; sample captured by anti-human CH1 antibody, HSA as analyte, 1:1 fit.
Experimental: as §1, §2, §4

B1: A26Fab 645Fv 3G4S 1189Fv (other)
heavy: EVQLVESGGGLVQPGGSLRLSCAASGFTFTNYGIHWIRQAPGKGLEWVASISPSGGLTYYRDSVKGRFTISRDDAKNSPYLQMNSLRAEDTAVYYCATGGEGIFDYWGQGTLVTVSSASTKGPSVFPLAPSSKSTSGGTAALGCLVKDYFPEPVTVSWNSGALTSGVHTFPAVLQSSGLYSLSSVVTVPSSSLGTQTYICNVNHKPSNTKVDKKVEPKSCSGGGGSGGGGSGGGGSEVQLLESGGGLVQPGGSLRLSCAVSGIDLSNYAINWVRQAPGKCLEWIGIIWASGTTFYATWAKGRFTISRDSTTVYLQMNSLRAEDTAVYYCARTVPGYSTAPYFDLWGQGTLVTVSSGGGGSGGGGSGGGGSEVQLVESGGGLVQPGGSLRLSCAASGFTFNDYDMAWVRQAPGKCLEWVASITPSGGGTYYRDSVKGRFTISRDNAKNSLYLQMNSLRAEDTAVYYCARHGYTLDYFEYWGQGTMVTVSS
light: DIQMTQSPSSLSASVGDRVTITCRATQSIYNALAWYQQKPGKAPKLLIYNANTLHTGVPSRFSASGSGTDSTLTISSLQPEDFATYYCQQYYDYPLTFGGGTKVEIKRTVAAPSVFIFPPSDEQLKSGTASVVCLLNNFYPREAKVQWKVDNALQSGNSQESVTEQDSKDSTYSLSSTLTLSKADYEKHKVYACEVTHQGLSSPVTKSFNRGECSGGGGSGGGGSGGGGSDIVMTQSPSSVSASVGDRVTITCQSSPSVWSNFLSWYQQKPGKAPKLLIYEASKLTSGVPSRFKGSGSGTDFTLTISSLQPEDFATYYCGGGYSSISDTTFGCGTKVEIKGGGGSGGGGSGGGGSDIQMTQSPSSLSASVGDRVTITCLASEGISNDLAWYQQKPGKAPKLLIYDATRLQDGVPSRFSGSGSGTDFTLTISSLQPEDFATYYCQQSYKYPWTFGCGTKLEIK
notes: Trispecific Fab-Fv-Fv (OX40, HSA, IL-6); second linker 3xG4S; HEK293 supernatant; also called A26Fab-645Fv-1189Fv; FabFvFv
By Kd is commonly meant the free concentration of one partner at which half of the binding sites on the other are occupied at equilibrium, for simple one-to-one binding. The low end stands for tighter binding, the high end for weaker binding. Usually koff stands for the rate constant with which the complex falls apart. High values mean a short-lived complex, low ones a long-lived complex. One may read the kon as the second-order rate constant of association. Consider B1, for which the Stoichiometry in experiment [1] came to 0.39. In experiment [2], this molecule had a Kd of 0.84 nM, an off-rate (koff) of 0.000737 s⁻¹ and a kon of 874000 M⁻¹ s⁻¹. This molecule registered a Stoichiometry in experiment [3] of 0.68. In experiment [4], this molecule registered a Kd of 11.6 nM, a koff of 0.000392 s⁻¹ and a kon of 33800 M⁻¹ s⁻¹.

B2: A26Fab 645Fv 4G4S 1189Fv (other)
heavy: EVQLVESGGGLVQPGGSLRLSCAASGFTFTNYGIHWIRQAPGKGLEWVASISPSGGLTYYRDSVKGRFTISRDDAKNSPYLQMNSLRAEDTAVYYCATGGEGIFDYWGQGTLVTVSSASTKGPSVFPLAPSSKSTSGGTAALGCLVKDYFPEPVTVSWNSGALTSGVHTFPAVLQSSGLYSLSSVVTVPSSSLGTQTYICNVNHKPSNTKVDKKVEPKSCSGGGGSGGGGSGGGGSEVQLLESGGGLVQPGGSLRLSCAVSGIDLSNYAINWVRQAPGKCLEWIGIIWASGTTFYATWAKGRFTISRDSTTVYLQMNSLRAEDTAVYYCARTVPGYSTAPYFDLWGQGTLVTVSSGGGGSGGGGSGGGGSGGGGSEVQLVESGGGLVQPGGSLRLSCAASGFTFNDYDMAWVRQAPGKCLEWVASITPSGGGTYYRDSVKGRFTISRDNAKNSLYLQMNSLRAEDTAVYYCARHGYTLDYFEYWGQGTMVTVSS
light: DIQMTQSPSSLSASVGDRVTITCRATQSIYNALAWYQQKPGKAPKLLIYNANTLHTGVPSRFSASGSGTDSTLTISSLQPEDFATYYCQQYYDYPLTFGGGTKVEIKRTVAAPSVFIFPPSDEQLKSGTASVVCLLNNFYPREAKVQWKVDNALQSGNSQESVTEQDSKDSTYSLSSTLTLSKADYEKHKVYACEVTHQGLSSPVTKSFNRGECSGGGGSGGGGSGGGGSDIVMTQSPSSVSASVGDRVTITCQSSPSVWSNFLSWYQQKPGKAPKLLIYEASKLTSGVPSRFKGSGSGTDFTLTISSLQPEDFATYYCGGGYSSISDTTFGCGTKVEIKGGGGSGGGGSGGGGSGGGGSDIQMTQSPSSLSASVGDRVTITCLASEGISNDLAWYQQKPGKAPKLLIYDATRLQDGVPSRFSGSGSGTDFTLTISSLQPEDFATYYCQQSYKYPWTFGCGTKLEIK
notes: Trispecific Fab-Fv-Fv (OX40, HSA, IL-6); second linker 4xG4S; HEK293 supernatant; also called A26Fab-645Fv-1189Fv; FabFvFv
In the case of B2, the Stoichiometry in experiment [1] came out at 0.4. Also, in experiment [2], binding was characterised by a dissociation constant (Kd) of 0.52 nM, the koff was determined as 0.000729 s⁻¹ and the kon is 1.41e+06 M⁻¹ s⁻¹. In addition, in experiment [3], the Stoichiometry worked out at 0.66. In experiment [4], this molecule came in with a Kd of 11.7 nM, a koff of 0.000396 s⁻¹ and a kon of 33900 M⁻¹ s⁻¹.

B3: A26Fab 645Fv 5G4S 1189Fv (other)
heavy: EVQLVESGGGLVQPGGSLRLSCAASGFTFTNYGIHWIRQAPGKGLEWVASISPSGGLTYYRDSVKGRFTISRDDAKNSPYLQMNSLRAEDTAVYYCATGGEGIFDYWGQGTLVTVSSASTKGPSVFPLAPSSKSTSGGTAALGCLVKDYFPEPVTVSWNSGALTSGVHTFPAVLQSSGLYSLSSVVTVPSSSLGTQTYICNVNHKPSNTKVDKKVEPKSCSGGGGSGGGGSGGGGSEVQLLESGGGLVQPGGSLRLSCAVSGIDLSNYAINWVRQAPGKCLEWIGIIWASGTTFYATWAKGRFTISRDSTTVYLQMNSLRAEDTAVYYCARTVPGYSTAPYFDLWGQGTLVTVSSGGGGSGGGGSGGGGSGGGGSGGGGSEVQLVESGGGLVQPGGSLRLSCAASGFTFNDYDMAWVRQAPGKCLEWVASITPSGGGTYYRDSVKGRFTISRDNAKNSLYLQMNSLRAEDTAVYYCARHGYTLDYFEYWGQGTMVTVSS
light: DIQMTQSPSSLSASVGDRVTITCRATQSIYNALAWYQQKPGKAPKLLIYNANTLHTGVPSRFSASGSGTDSTLTISSLQPEDFATYYCQQYYDYPLTFGGGTKVEIKRTVAAPSVFIFPPSDEQLKSGTASVVCLLNNFYPREAKVQWKVDNALQSGNSQESVTEQDSKDSTYSLSSTLTLSKADYEKHKVYACEVTHQGLSSPVTKSFNRGECSGGGGSGGGGSGGGGSDIVMTQSPSSVSASVGDRVTITCQSSPSVWSNFLSWYQQKPGKAPKLLIYEASKLTSGVPSRFKGSGSGTDFTLTISSLQPEDFATYYCGGGYSSISDTTFGCGTKVEIKGGGGSGGGGSGGGGSGGGGSGGGGSDIQMTQSPSSLSASVGDRVTITCLASEGISNDLAWYQQKPGKAPKLLIYDATRLQDGVPSRFSGSGSGTDFTLTISSLQPEDFATYYCQQSYKYPWTFGCGTKLEIK
notes: Trispecific Fab-Fv-Fv (OX40, HSA, IL-6); second linker 5xG4S; HEK293 supernatant; also called A26Fab-645Fv-1189Fv; FabFvFv
Molecule B3 showed a Stoichiometry in experiment [1] of 0.39. In experiment [2], this molecule displayed a Kd of 0.48 nM, a koff of 0.000768 s⁻¹ and a kon of 1.61e+06 M⁻¹ s⁻¹. This molecule also showed a Stoichiometry in experiment [3] of 0.69. In experiment [4], this molecule displayed a Kd of 12.2 nM, a koff of 0.000393 s⁻¹ and a kon of 32400 M⁻¹ s⁻¹.

B4: A26Fab 645Fv 2G4S 1189Fv (other)
heavy: EVQLVESGGGLVQPGGSLRLSCAASGFTFTNYGIHWIRQAPGKGLEWVASISPSGGLTYYRDSVKGRFTISRDDAKNSPYLQMNSLRAEDTAVYYCATGGEGIFDYWGQGTLVTVSSASTKGPSVFPLAPSSKSTSGGTAALGCLVKDYFPEPVTVSWNSGALTSGVHTFPAVLQSSGLYSLSSVVTVPSSSLGTQTYICNVNHKPSNTKVDKKVEPKSCSGGGGSGGGGSGGGGSEVQLLESGGGLVQPGGSLRLSCAVSGIDLSNYAINWVRQAPGKCLEWIGIIWASGTTFYATWAKGRFTISRDSTTVYLQMNSLRAEDTAVYYCARTVPGYSTAPYFDLWGQGTLVTVSSGGGGSGGGGSEVQLVESGGGLVQPGGSLRLSCAASGFTFNDYDMAWVRQAPGKCLEWVASITPSGGGTYYRDSVKGRFTISRDNAKNSLYLQMNSLRAEDTAVYYCARHGYTLDYFEYWGQGTMVTVSS
light: DIQMTQSPSSLSASVGDRVTITCRATQSIYNALAWYQQKPGKAPKLLIYNANTLHTGVPSRFSASGSGTDSTLTISSLQPEDFATYYCQQYYDYPLTFGGGTKVEIKRTVAAPSVFIFPPSDEQLKSGTASVVCLLNNFYPREAKVQWKVDNALQSGNSQESVTEQDSKDSTYSLSSTLTLSKADYEKHKVYACEVTHQGLSSPVTKSFNRGECSGGGGSGGGGSGGGGSDIVMTQSPSSVSASVGDRVTITCQSSPSVWSNFLSWYQQKPGKAPKLLIYEASKLTSGVPSRFKGSGSGTDFTLTISSLQPEDFATYYCGGGYSSISDTTFGCGTKVEIKGGGGSGGGGSDIQMTQSPSSLSASVGDRVTITCLASEGISNDLAWYQQKPGKAPKLLIYDATRLQDGVPSRFSGSGSGTDFTLTISSLQPEDFATYYCQQSYKYPWTFGCGTKLEIK
notes: Trispecific Fab-Fv-Fv (OX40, HSA, IL-6); second linker 2xG4S; HEK293 supernatant; also called A26Fab-645Fv-1189Fv; FabFvFv
Turning to B4, the Stoichiometry in experiment [1] was 0.4; in experiment [3] it was 0.47. The Kd was determined as 0.78 nM in experiment [2] and 11.6 nM in experiment [4]. Besides, the results for the koff in experiment [2] and in experiment [4] were 0.000747 s⁻¹ and 0.000389 s⁻¹, respectively. The kon in experiment [2] was 959000 M⁻¹ s⁻¹; in experiment [4], 33700 M⁻¹ s⁻¹.

Source of the values: patent US20130053549A1 (UCB, published 2013).
